The record followed here is patent US9340584 (GENERAL HOSPITAL, dated 2016).

Assay [1] addresses T1, streptavidin (streptavidin coated plate, wells without immobilized CD5) (UniProt P22629 37-163, limits assumed).
T1 construct: also called control streptavidin
Description: phage ELISA, streptavidin coated wells without immobilized CD5.

For another assay, the target named is T2, mouse serum albumin (mouse, UniProt P07724 25-608, biotinylated).
T2 construct: also called MSA; MSA-biotin
Description: phage ELISA, MSA-biotin on streptavidin plate.

In another assay the target is T3, rat serum albumin (rat, UniProt P02770 25-608, biotinylated).
T3 construct: also called RSA; RSA-biotin
T3 sequence (P02770 25-608 limits assumed): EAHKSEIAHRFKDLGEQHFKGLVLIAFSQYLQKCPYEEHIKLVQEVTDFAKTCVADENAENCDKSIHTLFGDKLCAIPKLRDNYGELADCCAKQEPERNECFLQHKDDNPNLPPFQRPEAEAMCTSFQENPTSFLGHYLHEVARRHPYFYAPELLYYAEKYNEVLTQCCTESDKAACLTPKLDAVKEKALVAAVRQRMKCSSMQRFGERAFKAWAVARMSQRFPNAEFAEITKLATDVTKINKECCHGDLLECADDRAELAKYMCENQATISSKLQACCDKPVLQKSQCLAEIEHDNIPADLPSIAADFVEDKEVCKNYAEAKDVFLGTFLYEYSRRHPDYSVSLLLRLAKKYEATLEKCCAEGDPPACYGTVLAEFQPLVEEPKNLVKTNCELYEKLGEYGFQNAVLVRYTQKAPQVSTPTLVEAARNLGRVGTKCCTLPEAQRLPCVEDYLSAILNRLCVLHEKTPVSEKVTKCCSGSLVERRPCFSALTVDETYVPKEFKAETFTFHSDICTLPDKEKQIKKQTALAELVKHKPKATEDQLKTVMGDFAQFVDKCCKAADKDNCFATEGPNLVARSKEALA
Description: phage ELISA, RSA-biotin on streptavidin plate. A general note: In an ELISA, binding on a coated surface is turned into a signal by an enzyme label.

For the next assay, the target named is T4, control CD19 protein (UniProt P15391 20-291, limits assumed).
T4 sequence (looked up): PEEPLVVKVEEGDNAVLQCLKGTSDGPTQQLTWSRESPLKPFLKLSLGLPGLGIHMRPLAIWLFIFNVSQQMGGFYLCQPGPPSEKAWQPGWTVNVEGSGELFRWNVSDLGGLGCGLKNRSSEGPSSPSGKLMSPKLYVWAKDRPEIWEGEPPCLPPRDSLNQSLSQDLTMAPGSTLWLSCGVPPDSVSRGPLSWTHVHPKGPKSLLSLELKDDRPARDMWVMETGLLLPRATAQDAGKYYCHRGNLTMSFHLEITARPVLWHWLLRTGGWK
Description: phage ELISA.

The target in assay [2] is T5, CD5 expressed on the cell surface (transfected HEK293T cells; Raji cells ectopically expressing wild type CD5) (UniProt P06127 25-495, limits assumed).
T5 sequence (looked up): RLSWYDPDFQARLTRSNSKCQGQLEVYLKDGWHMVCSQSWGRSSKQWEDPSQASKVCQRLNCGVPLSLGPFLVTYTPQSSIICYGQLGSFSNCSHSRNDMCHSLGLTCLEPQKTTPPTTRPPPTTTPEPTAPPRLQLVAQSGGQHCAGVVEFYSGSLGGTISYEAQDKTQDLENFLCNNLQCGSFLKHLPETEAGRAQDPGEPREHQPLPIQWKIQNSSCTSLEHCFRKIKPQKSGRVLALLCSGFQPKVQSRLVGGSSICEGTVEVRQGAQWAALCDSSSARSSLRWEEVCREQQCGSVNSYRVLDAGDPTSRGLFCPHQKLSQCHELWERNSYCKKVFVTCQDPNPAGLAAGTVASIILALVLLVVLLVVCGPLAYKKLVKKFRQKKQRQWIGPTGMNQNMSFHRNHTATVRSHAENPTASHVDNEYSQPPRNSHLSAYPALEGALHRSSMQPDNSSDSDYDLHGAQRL
Description: cell-based or functional assay.

T2 sequence (P07724 25-608 limits assumed): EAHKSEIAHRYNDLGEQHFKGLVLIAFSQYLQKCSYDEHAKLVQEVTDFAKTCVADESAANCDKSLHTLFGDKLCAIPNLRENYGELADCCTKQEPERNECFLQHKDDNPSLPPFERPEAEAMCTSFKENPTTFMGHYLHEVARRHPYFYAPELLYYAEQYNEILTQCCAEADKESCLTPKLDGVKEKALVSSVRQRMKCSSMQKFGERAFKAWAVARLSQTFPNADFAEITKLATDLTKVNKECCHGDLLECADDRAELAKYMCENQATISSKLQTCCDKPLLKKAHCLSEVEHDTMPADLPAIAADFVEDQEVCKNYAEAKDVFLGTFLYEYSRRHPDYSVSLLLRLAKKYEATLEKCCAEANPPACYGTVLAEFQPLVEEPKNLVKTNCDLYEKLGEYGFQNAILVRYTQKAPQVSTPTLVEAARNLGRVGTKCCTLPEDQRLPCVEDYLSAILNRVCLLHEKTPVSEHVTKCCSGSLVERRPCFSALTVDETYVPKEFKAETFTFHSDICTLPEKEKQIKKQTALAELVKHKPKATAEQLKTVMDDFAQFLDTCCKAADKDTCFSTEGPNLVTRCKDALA
T1 sequence (P22629 37-163 limits assumed): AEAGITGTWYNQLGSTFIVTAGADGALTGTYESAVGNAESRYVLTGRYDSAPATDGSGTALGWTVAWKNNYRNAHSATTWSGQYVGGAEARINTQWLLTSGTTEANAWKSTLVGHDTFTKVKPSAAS

B1: CD5 binder E6 (TRX-3 library), phage-displayed (designed binder)
chain: MVKQIESKTAFQEALDAAGDKLVVVDFSATNTIKHGGSRWSGPSKMIKPFFHSLSEKYSNVIFLEVDVDDAQDVASEAEKGILVSPLPTFQFFKKGQKVGEFSGANKEKLEATINELV
notes: also called E6 phage
On to B1, for which the binding result in assay [1] is “no binding”.

B2: HSA binder E5 (TRX-3 library), phage-displayed (designed binder)
chain: MVKQIESKTAFQEALDAAGDKLVVVDFSATRRNERARDWWSGPSKMIKPFFHSLSEKYSNVIFLEVDVDDAQDVASEALAAGPFYLLPTFQFFKKGQKVGEFSGANKEKLEATINELV
notes: AGPF loop 3′ motif
For B2, the binding result with mouse serum albumin and in the assay with rat serum albumin was “no binding” in each case.

B3: CD5 binder E10 (TRX-3 library) (designed binder)
chain: MVKQIESKTAFQEALDAAGDKLVVVDFSATKERDSAWDDWSGPSKMIKPFFHSLSEKYSNVIFLEVDVDDAQDVASEAFYWSYPSLPPTFQFFKKGQKVGEFSGANKEKLEATINELV
With B3, the binding result with control CD19 protein is recorded as “no binding”.

B4: HSA binder G5 (TRX-3 library), phage-displayed (designed binder)
chain: MVKQIESKTAFQEALDAAGDKLVVVDFSATRLRTGGHPYWSGPSKMIKPFFHSLSEKYSNVIFLEVDVDDAQDVASEAVYVSLSRHRPTFQFFKKGQKVGEFSGANKEKLEATINELV
For the molecule B4, the binding result in the assay with mouse serum albumin and with rat serum albumin was “no binding” in each case.

B5: HSA binder E1 (TRX-3 library), phage-displayed (designed binder)
chain: MVKQIESKTAFQEALDAAGDKLVVVDFSATRSENDRWNEWSGPSKMIKPFFHSLSEKYSNVIFLEVDVDDAQDVASEALIAGPFWYSPTFQFFKKGQKVGEFSGANKEKLEATINELV
notes: AGPF loop 3′ motif
Turning to B5, the binding result in the assay with mouse serum albumin and with rat serum albumin was “no binding” throughout.

B6: E6-aerolysin fusion protein (other)
chain: MVKQIESKTAFQEALDAAGDKLVVVDFSATNTIKHGGSRWSGPSKMIKPFFHSLSEKYSNVIFLEVDVDDAQDVASEAEKGILVSPLPTFQFFKKGQKVGEFSGANKEKLEATINELVGEIPTLSALDIPDGDEVDVQWRLVHDSANFIKPTSYLAHYLGYAWVGGNHSQYVGEDMDVTRDGDGWVIRGNNDGGCDGYRCGDKTAIKVSNFAYNLDPDSFKHGDVTQSDRQLVKTVVGWAVNDSDTPQSGYDVTLRYDTATNWSKTNTYGLSEKVTTKNKFKWPLVGETELSIEIAANQSWASQNGGSTTTSLSQSVRPTVPARSKIPVKIELYKADISYPYEFKADVSYDLTLSGFLRWGGNAWYTHPDNRPNWNHTFVIGPYKDKASSIRYQWDKRYIPGEVKWWDWNWTIQQNGLSTMQNNLARVLRPVRAGITGDFSAESQFAGNIEIGAPVPLAADSKVRRARSVDGAGQGLRLEIPLDAQELSGLGFNNVSLSVTPAANQ
modifications: labelled with NHS-fluorescein for FACS (sites not given)
As for B6, the “EC50, MTS cytotoxicity assay on CD5+ Raji cells, 48 hours” value in assay [2] was 132 nM.

B7: CD5 binder A5 (TRX-3 library) (designed binder)
chain: MVKQIESKTAFQEALDAAGDKLVVVDFSATQCNTGESHDWSGPSKMIKPFFHSLSEKYSNVIFLEVDVDDAQDVASEAWSPLIMCTMPTFQFFKKGQKVGEFSGANKEKLEATINELV
B7: the binding result with control CD19 protein is recorded as “no binding”.

B8: CD5 binder A1 (TRX-3 library) (designed binder)
chain: MVKQIESKTAFQEALDAAGDKLVVVDFSATQWWGWIDGQWSGPSKMIKPFFHSLSEKYSNVIFLEVDVDDAQDVASEAYPLFGMAALPTFQFFKKGQKVGEFSGANKEKLEATINELV
On to B8, for which the binding result in the assay with control CD19 protein is reported as “no binding”.
